Measurements published in patent publication US20150299285A1 (INDIANA UNIVERSITY RESEARCH AND TECHNOLOGY, published 2015).
Where “and” joins values, the source holds several entries; their conditions need not be identical. Identical values can stand only once. Like-named read-outs stand apart in the source and are kept apart here. Bridges are numbered along the chain shown (N, C = ends). Roman numbers before positions name the chains, in order. Where no end group is shown, it is not given here. [ ]: non-standard residue; d: D form. Phe(4-NH2) = Nc1ccc(C[C@H](N)C(=O)O)cc1

B1: IGF1(Y^B16L^B17)(p-NH2-F)^A19amide (ligand)
chain 1: GIVDECCFRSCDLRRLEM[Phe(4-NH2)]CA
chain 2: GPETLCGAELVDALYLVCGDRGFYFNKPT
modifications: disulfide I:6-I:11, I:20-II:18, I:7-II:6; not fully specified (C-terminus); also: amide in name, site not given here
notes: also called IGF1 A:B(Y^B16L^B17)(p-NH2-F)^A19amide; IGF1 (Y^B16L^B17) A(p-NH2-F)^19
B2: IGF-1 A:B (H5D10Y16L17) (S=O)DPI (ligand)
chain 1: GIVDECCFRSCDLRRLEMYCA-NH2
chain 2: GPEHLCGADLVDALYLVCGDRGFY-NH2
modifications: disulfide I:6-I:11, I:20-II:18, I:7-II:6; also: (S=O), residue not given here
notes: the only Met stands at A18
B3: DP20 Lys C (two chain form of DP20) (ligand)
chain 1: GPEHLCGAHLVDALYLVCGDRGFYSSSSRAPPPSLPSPSRLPGPSDTPILPQK
chain 2: GIVDECCHRSCDLRRLENYCN
B4: IGF1(Y^B16L^B17) (ligand)
chain 1: GIVDECCFRSCDLRRLEMYCA
chain 2: GPETLCGAELVDALYLVCGDRGFYFNKPT
notes: Two chain heteroduplex; may be the same molecule as m22; also called IGF1 (Y^B16L^B17) analog; IGF1 A:B(Y^B16L^B17)
B5: IGF-1 A:B (ligand)
chain 1: GIVDECCFRSCDLRRLEMYCA-NH2
chain 2: GPETLCGAELVDALQFVCGDRGFYFNKPT-NH2
modifications: disulfide I:6-I:11, I:20-II:18, I:7-II:6
notes: also called IGF-1 A and B chain heteroduplex
B6: MIU-68: B0, B22-PEG10K di-PEGylated B^1(H5,Y16,L17, K22)25-C^1(K8)-A^1(N18,21) (ligand)
chain: {PEG 10 kDa}-GPEHLCGAELVDALYLVCGDK(PEG 10 kDa)GFYGYGSSSRKAPQTGIVDECCFRSCDLRRLENYCN
modifications: disulfide 18-56, 42-47, 6-43
B7: MIU-35: B^1(H5, H10, Y16, L17)25-C^1-A^1 (H8, N18, N21) (ligand)
chain: GPEHLCGAHLVDALYLVCGDRGFYGYGSSSRRAPQTGIVDECCHRSCDLRRLENYCN
B8: MIU-57: B1-PEG20K B^1(H5,Y16,L17)25-C^1-A^1(N18,21) (ligand)
chain: {PEG 20 kDa}-GPEHLCGAELVDALYLVCGDRGFYGYGSSSRRAPQTGIVDECCFRSCDLRRLENYCN
modifications: disulfide 18-56, 42-47, 6-43
B9: MIU-67: B0, C8-PEG10K di-PEGylated B^1(H5,Y16,L17)25-C^1(K8)-A^1(N18,21) (ligand)
chain: {PEG 10 kDa}-GPEHLCGAELVDALYLVCGDRGFYGYGSSSRK(PEG 10 kDa)APQTGIVDECCFRSCDLRRLENYCN
modifications: disulfide 18-56, 42-47, 6-43
B10: MIU-58: B1-PEG20K-B1- Dimer (ligand)
chain: {PEG 20 kDa}-GPEHLCGAELVDALYLVCGDRGFYGYGSSSRRAPQTGIVDECCFRSCDLRRLENYCN
modifications: disulfide 18-56, 42-47, 6-43; also: dimer: two chains linked head to head via 20 kDa PEG
B11: DP22LysC (ligand)
chain 1: APPPSLPSPSRLPGPSDTPILPQEEEEERGPEHLCGAHLVDALYLVCGDRGFYSSSSRAPPPSLPSPSRLPGPSDTPILPQK
chain 2: GIVDECCHRSCDLRRLENYCN
B12: IGF-1 A:B(E10 Y16L17)-E31E32 B-COOH (ligand)
chain 1: GIVDECCFRSCDLRRLEMYCA-NH2
chain 2: GPETLCGAELVDALYLVCGDRGFYFNKPTEE-OH
modifications: disulfide I:6-I:11, I:20-II:18, I:7-II:6
B13: MIU-69: B0, A14-PEG10K di-PEGylated B^1(H5,Y16,L17)25-C^1(K8)-A^1(K14, N18,21) (ligand)
chain: {PEG 10 kDa}-GPEHLCGAELVDALYLVCGDRGFYGYGSSSRKAPQTGIVDECCFRSCDLK(PEG 10 kDa)RLENYCN
modifications: disulfide 18-56, 42-47, 6-43
B14: IGF-2 AB(YL) (ligand)
chain 1: not shown
chain 2: AYRPSETLCGGELVDTLYLVCGDRGFYFSRPA
modifications: C-terminal amide
B15: IGF-1 A:B(E10Y16L17) (ligand)
chain 1: GIVDECCFRSCDLRRLEMYCA
chain 2: GPETLCGAELVDALYLVCGDRGFYFNKPT
modifications: disulfide I:6-I:11, I:20-II:18, I:7-II:6; not fully specified (C-terminus)
B16: IGF-1 A:IGF-1 B(1-8)-In (9-17)-IGF-1 B(18-30) (ligand)
chain 1: GIVDECCFRSCDLRRLEMYCA-NH2
chain 2: GPETLCGSHLVEALYLVCGDRGFYFNKPT-NH2
modifications: disulfide I:6-I:11, I:20-II:18, I:7-II:6
B17: DP22: CTP-E5R-B chain-CTP(K)-A Chain (ligand)
chain: MGSSSSKAPPPSLPSPSRLPGPSDTPILPQEEEEERGPEHLCGAHLVDALYLVCGDRGFYSSSSRAPPPSLPSPSRLPGPSDTPILPQKGIVDECCHRSCDLRRLENYCN
B18: IGF1(Y^B16L^B17)(AlaPro)^A-1,0 (ligand)
chain 1: APGIVDECCFRSCDLRRLEMYCA
chain 2: GPETLCGAELVDALYLVCGDRGFYFNKPT
B19: DP20: GE5K-B chain-CTP(K)-A Chain (ligand)
chain: GEEEEEKGPEHLCGAHLVDALYLVCGDRGFYSSSSRAPPPSLPSPSRLPGPSDTPILPQKGIVDECCHRSCDLRRLENYCN
B20: IGF-1 A:In (1-17)-IGF-1 B (18-30) (ligand)
chain 1: GIVDECCFRSCDLRRLEMYCA-NH2
chain 2: FVNQHLCGSHLVEALYLVCGDRGFYFNKPT-NH2
modifications: disulfide I:6-I:11, I:20-II:19, I:7-II:7
B21: IGF-1 A:In B(1-5)-IGF-1 B(YL)(6-30) (ligand)
chain 1: GIVDECCFRSCDLRRLEMYCA
chain 2: FVNQHLCGAELVDALYLVCGDRGFYFNKPT
modifications: not fully specified (bridges); cysteine pairing not given here; also: C-terminal amide, chain not given here
B22: IGF-1 A:B (H5D10Y16L17) DPI (ligand)
chain 1: GIVDECCFRSCDLRRLEMYCA-NH2
chain 2: GPEHLCGADLVDALYLVCGDRGFY-NH2
modifications: disulfide I:6-I:11, I:20-II:18, I:7-II:6
B23: IGF-1 A:B(D10Y16L17) DPI A-COOH (ligand)
chain 1: GIVDECCFRSCDLRRLEMYCA-OH
chain 2: GPETLCGADLVDALYLVCGDRGFY-NH2
modifications: disulfide I:6-I:11, I:20-II:18, I:7-II:6
B24: IGF-1 A:B (E10Y16L17) DPI (ligand)
chain 1: GIVDECCFRSCDLRRLEMYCA-NH2
chain 2: GPETLCGAELVDALYLVCGDRGFY-NH2
modifications: disulfide I:6-I:11, I:20-II:18, I:7-II:6
B25: IGF-1 A (H8 A9 N21):B(H5D10Y16L17 A22) DPI A-COOH (ligand)
chain 1: GIVDECCHASCDLRRLEMYCN
chain 2: GPEHLCGADLVDALYLVCGDAGFY
B26: IGF-1 A (H8 A9 N21):B(H5D10Y16L17) DPI A-COOH (ligand)
chain 1: GIVDECCHASCDLRRLEMYCN-OH
chain 2: GPEHLCGADLVDALYLVCGDRGFY-NH2
modifications: disulfide I:6-I:11, I:20-II:18, I:7-II:6

Key:
[1] = molecular target: T1, human insulin receptor (human, UniProt P06213 28-1382); experiment: competition with 125I-insulin, receptor membranes, SPA
T1 construct: whole, on cells

[2] = molecular target: T1, human insulin receptor; experiment: as above; remark: listed apart in the source
[3] = molecular target: T2, human IGF-1 receptor (human, UniProt P08069 31-1367); experiment: cell-based or functional assay
[4] = molecular target: T1, human insulin receptor; experiment: competition with 125I-insulin, receptor membranes, SPA; remark: listed apart in the source
[5] = molecular target: T2, human IGF-1 receptor; experiment: cell-based or functional assay; remark: listed apart in the source
[6] = molecular target: T2, human IGF-1 receptor; experiment: competition with 125I-IGF-1, receptor membranes, SPA
[7] = molecular target: T2, human IGF-1 receptor; experiment: cell-based or functional assay; remark: listed apart in the source
[8] = molecular target: T1, human insulin receptor; experiment: cell-based or functional assay
[9] = molecular target: T1, human insulin receptor; experiment: competition with 125I-insulin, receptor membranes, SPA; remark: listed apart in the source

Binder | IC50 [2] | % IGF-1 (in test) [6] [%] | % native IGF-1 activity (0.55 nM) [6] [%] | IC50 [6] | other results
B1 | – | – | – | – | IC50 [1]: 1.08 nM
B2 | 0.25 nM | – | – | – | % insulin (in test) [2]: 316%
B3 | – | – | – | – | EC50, phosphorylation (FIG. 18C) [3]: 8.23 nM
B4 | – | – | – | – | IC50 [4]: 0.51 nM
B5 | 10.4 nM | – | – | – | % insulin (in test) [2]: 5.8%; % native insulin activity (0.6 nM) [2]: 5.8%
B6 | – | – | – | – | % Insulin Activity (in vitro; assay not stated) [5]: < 0.1%
B7 | – | – | – | – | % Insulin Activity (in vitro; assay not stated) [5]: 3.2%
B8 | – | – | – | – | % Insulin Activity (in vitro; assay not stated) [5]: 1.2%
B9 | – | – | – | – | % Insulin Activity (in vitro; assay not stated) [5]: < 0.1%
B10 | – | – | – | – | % Insulin Activity (in vitro; assay not stated) [5]: 2.6%
B11 | – | – | – | – | EC50, phosphorylation (FIG. 18C) [3]: 14.8 nM
B12 | – | 3 | 3.1 | 17.5 nM | –
B13 | – | – | – | – | % Insulin Activity (in vitro; assay not stated) [5]: < 0.1%
B14 | 6.81 nM | – | – | – | –
B15 | 0.66 nM and 0.51 nM | – | – | 7.85 nM and 12.2 nM | % IGF, total phosphorylation [7]: 13%; % Insulin, total phosphorylation [8]: 49.2%
B16 | 1.59 nM | 0.3 | 0.4 | 131 nM | % insulin (in test) [2]: 19.1%; % native insulin activity (0.6 nM) [2]: 37.7%
B17 | – | – | – | – | EC50, phosphorylation (FIG. 18C) [3]: 83.1 nM
B18 | – | – | – | – | IC50 [9]: 1.93 nM
B19 | – | – | – | – | EC50, phosphorylation (FIG. 18C) [3]: 316 nM
B20 | 2.77 nM and 2.67 nM and 2.48 nM | 0.9 | 0.9 | 62.5 nM | –
B21 | – | 3.6 | 2 | 27.5 nM | –
B22 | 0.16 nM | 11.2 | 11.8 | 4.66 nM | % insulin (in test) [2]: 479%; % IGF, total phosphorylation [7]: 7.1%
B23 | 0.2 nM and 0.42 nM and 0.26 nM | 7.7 | 8.1 | 6.79 nM | % IGF, total phosphorylation [7]: 112%; % Insulin, total phosphorylation [8]: 1580%
B24 | – | 3.3 | 2.4 | 22.9 nM | –
B25 | 0.12 nM | 2.3 | 2.4 | 22.8 nM | % IGF, total phosphorylation [7]: 7.7%
B26 | 0.05 nM and 0.09 nM | 12.9 | 13.6 | 4.03 nM | % IGF, total phosphorylation [7]: 181%
